Results: paper PMC7887190

Molecular target: YB1 (UniProt P67809)
Test: reciprocal co-IP (anti-YB1, anti-WAVE3), blot

Row | Substance | binding against the reference (reference: wild-type WAVE3 (W3-WT), sites Y151,Y248,Y337,Y486) | binding against the reference (reference: PRD-WT (GFP fusion), sites Y248,Y337)
1 | WAVE3 (from UniProt Q9UPY6) W3-Y4F | lost | –
2 | WAVE3 proline-rich domain (PRD) (from UniProt Q9UPY6) PRD-DM (Y248F/Y337F) | – | weaker
